Results from US7332473B2, “Peptides and medicinal compositions containing the same” (priority 2002, dated 2008).
Square brackets hold non-standard residues; d marks the D form. Ends that are not written are not given here. Met(O) = CS(=O)CC[C@H](N)C(=O)O

Legend:
[1] = Helical content from circular dichroism spectra; format: physicochemical; details: 20 mM Tris-HCl buffer (pH 7.4), calculation by Greenfield et al.
Protocol: VIP (peptide 1, SEQ ID NO: 2), peptide 7 (SEQ ID NO: 8) corresponding to 25 residues at the N-terminus of VIP, and peptide 8 (SEQ ID NO: 9), which is a peptide 7 derivative with its methionine-17 being oxidized, were dissolved in a 20 mM Tris-HCl buffer (pH 7.4), and the circular dichroism spectra thereof were examined using the Jasco J-720 (Jasco Corporation). According to analytical calculation of higher-order structure by Greenfield et al., the helical content of peptide 1 was about 50% (FIG. 2).

[2] = test system: murine gastric smooth muscles; assay: Inhibition of carbachol-induced constriction of murine gastric smooth muscle (Magnus apparatus); parameters: species or system ICR mice; details: final concentration 10^−6 M, peptide 1 = 100%

Question: For “His-Ser-Asp-Ala-Val-Phe-Thr-Asp-Asn-Tyr-Thr-Arg-Leu-Arg-Lys-Gln-Met(O)-Ala-Val-Lys-Lys-Tyr-Leu-Asn-Ser-NH2 (HSDAVFTDNYTRLRKQ[Met(O)]AVKKYLNS-NH2; N-terminus assumed; SMILES CC(C)C[C@H](NC(=O)[C@H](Cc1ccc(O)cc1)NC(=O)[C@H](CCCCN)NC(=O)[C@H](CCCCN)NC(=O)[C@@H](NC(=O)[C@H](C)NC(=O)[C@H](CCS(C)=O)NC(=O)[C@H](CCC(N)=O)NC(=O)[C@H](CCCCN)NC(=O)[C@H](CCCNC(=N)N)NC(=O)[C@H](CC(C)C)NC(=O)[C@H](CCCNC(=N)N)NC(=O)[C@@H](NC(=O)[C@H](Cc1ccc(O)cc1)NC(=O)[C@H](CC(N)=O)NC(=O)[C@H](CC(=O)O)NC(=O)[C@@H](NC(=O)[C@H](Cc1ccccc1)NC(=O)[C@@H](NC(=O)[C@H](C)NC(=O)[C@H](CC(=O)O)NC(=O)[C@H](CO)NC(=O)[C@@H](N)Cc1c[nH]cn1)C(C)C)[C@@H](C)O)[C@@H](C)O)C(C)C)C(=O)N[C@@H](CC(N)=O)C(=O)N[C@@H](CO)C(N)=O) [Peptide 8]”, which helical content [1] is on record?
Answer: reduced to about half that of peptide 1

Question: What about the “maximal inhibition of murine gastric smooth muscle constriction (activity, in words)” value [2] of the same substance?
Answer: significantly attenuated compared to that of peptide 7
